For one substance, percentage of HSP90β-JEV binding by FCM (0 μg/ml anti-HSP90β mAb), percentage of HSP90β-JEV binding by FCM (with 20 μg/ml anti-HSP90β mAb) and percentage of HSP90β-JEV binding by FCM (with 100 μg/ml anti-HSP90β mAb) results are on record in PMC5505021.

The target of this test is heat shock protein 90β (African green monkey (endogenous in Vero)). The experiment in a line: flow cytometry on cells. Background: A flow cytometer gives signals particle by particle.

As to “Japanese encephalitis virus strain SA14, purified viral particles (complex)”, the percentage of HSP90β-JEV binding by FCM (0 μg/ml anti-HSP90β mAb) was found to be 76.2%, the percentage of HSP90β-JEV binding by FCM (with 20 μg/ml anti-HSP90β mAb) is 19.1% and the percentage of HSP90β-JEV binding by FCM (with 100 μg/ml anti-HSP90β mAb) came to 10.4%.
